Patent US12630594B2, “Allergy antigen and epitope for same” (HOYU CO., LTD., priority 2017, dated 2026)

B1: Myosin binding protein H-like (protein)
chain: MPAKPAPIKKAAPKEPAPKKEEAPAPAPAEAAPAEVAPPAEVEAPPAEAAPAEAAAPAEAAPTEEKAPAEPAPEQPKAPTPPPPDEPTSEPLEVTVDDKSDTSVTITWRPPKTIPANSGLDGYTVEITKEGTEDWKAANEDLTVSCRYVIKNQTTGDRLLIRVVAVNPGGRSPPATIADPVLVKEVGARPKVRLPRFLRQRYVKKVGEKINIVIPYSGKPKPVVSWLKDGQPLDSKRANIRTSDRDSILFIRQAERVDSGSYEMCVKVDDFEDKAAIIIQIIELPGPPASIKIVDVWGFNVALEWTVPKDNGNTEITGYTVQKADKKTGDWFNILEHYARLNATISDLIMGNTYTFRVFAENKCGLSEECAVTKGEATIVKEVIDYKPTPFVEHDFTEAPKFTTVLNDRSTTVGYSTKLLCSVRGCPKPKIMWMKNKMILNNMDNPKYRMISTGGICTLEIRKPGPYDGGEYVCRAENTLGKVDTGCKLEVRKPGQADADKDKKEQ
modifications: Myosin binding protein H-like
B2: Alpha-actinin-3 (protein)
chain: MTAIETQVQYGSYMTSEQVYMTQEDDWDRDLLLDPAWEKQQRKTFTAWCNSHLRKAGTQIENIEEDFRNGLKLMLLLEVISGERLPKPDKGKMRFHKIANVNKALDFICSKGVKLVSIGAEEIVDGNVKMTLGMIWTIILRFAIQDISVEETSAKEGLLLWCQRKTAPYRNVNVQNFHISWKDGLALCALIHRHRPDLIDYSKLRKDDPMGNLNTAFEVAEKYLDIPKMLDAEDIVNTPKPDEKAIMTYVSCFYHAFAGAEQAETAANRICKVLAVNQENEKLMEEYEKLASELLEWIRRTIPWLENRVAEQTMRAMQQKLEDFRDYRRVHKPPKVQEKCQLEINFNTLQTKLRLSNRPAFMPSEGKMVSDIANAWKGLEQVEKGYEEWLLTEIRRLERLDHLAEKFKQKSSLHESWTSGKVELLSMKDYESASLMEIRALMRKHEAFESDLAAHQDRVEQIAAIAQELNELDYHDAVTINARCQGICDQWDNLGTLTQKRRDSLERVEKLWETIDQLYLEFAKRAAPFNNWMDGAMEDLQDMFIVHSIEEIQSLITAHDQFKATLPEADKERVATMGIQNEIVKIAQTYGIKLSGVNPYTNLSPQDITDKWDAVKHLVPLRDQMLQEEVARQQSNERLRRQFAAQANIIGPWIQTKMEEISHVSVDIAGSLEEQMSNLKQYEQNIINYKCNIDKLEGDHQLSQESLIFDNKHTNYTMEHVRVGWEQLLTTIARTINEVENQILTRDAKGISQEQLNEFRASFNHFDRKRNGMMDPDDFRACLISMGYDLGEVEFARIMTLVDSNNTGVVTFQAFIDFMTRETAETDTADQVMASFKILASDKTYITVEELRRELPPEQADYCISRMTSYIGSGAPPGALDYISFSSALYGESDL
modifications: PREDICTED: alpha-actinin-3
B3: Desmin (fragment) (protein)
chain: ISSYRRTFGSGIGSTPGMSSMFSHGGRGSSGSAHMSSRVYEMTKSSARPSYSSGSIRSSSGGAMRSYAGMGEKLDFNLADATNRDFLDTRTNEKAELQHLNDRFASYIEKVRFLEQQNATLVVEIERLRGHEPTRVAEMYEEEMRELRRQVDGMSNDRARMEVERDNLADDLQKLKLRLQEVIHQREEAENNLSAFRADVDSATLARLDLERRIESLQEEITFLKKIHEEEIHELTSQMQETSVQVQMDMSKPDLTVALRDIRMQYEGIAAKNISEAEDWYKSKVSDLNQAVNKNNDALRQAKQESMEFRHQIQSYTCEIDSLKGTNESLLRQMREMEDRLGNEAGGYQDSVTRLEAEIAKMKDEMARHLREYQDLLNVKMALDIEIATYRKLLEGEESRITVSGSKSSHSGSHSAASLYSTVGFRETSPDVGRSAEVHSKKTVLIKTIETRDGEVVSE
modifications: Desmin (fragment)
B4: Myosin-binding protein C, fast-type-like (protein)
chain: MPEAADAVKPEGEEGEAPAEAEENTAEDDEPLPEGEEGAHQSQEITGLFLQHPETTVAITGTDIVFTAKVDSTTLSRKPTIKWLKGKWLDLGSKAGKHMQFKETFDRATKIYTWDMKIIKVVPGDAGAYRCEVTSKDKCDSSAFDISVEAVQIEEEHDSLAAFKRTDAGEDEGSLDFSALLKATKKKKKPVVDEEKADVWEILKNAQPSEYEKIAFEYGITDLRGLLKRLKKMKTVEPKHSDAFLKRMESAYSVDKGKKIVLQVEVVDPNAQVKWLKNGQEIKSSAKYIIESVGNIRTLTINKCSLADDAAYECVIGEEKSFTEVFVKEPPVTITKLLDDYHVVVGERVEFEVEVSVEGAHVNWMFEDQELSRDTHKYRFKKDGLKHMLIIQEATLDDIGMYWCFTNGGRTKGELEVEEKELEVLQNIADLTVKAEDQAMFKCEVSDEKVTGKWLKDGVEVLPSSRIKLTHIGRIHRLTIDDVKPEDAGDYTFIPDGYALSLSAKLNFLEIKIDYVPRQEPPKIHLDTTGNMVSQNTIIVVAGNKLRLDVEISGEPPPTVVWAKGDTAITAVEGRVRTESRKDLSCFVIEGAEREDEGNYTIIVTNPAGEDKAHLFVKIVDVPDCPENVKCTSVGEDCATMVWDPPKFDGGAPVTGYLMERKKKGSTRWTKLNFDVYEGVTYEAKRMIEGVLYEMRVYAVNGIGMSQPSLNSKPFMPIAATSEPLGLKVHDVTDTTCTLKWLAPEKIGAGGLDGYVIEYCKEGDTEWVVANTELVERQNYTVRNLPTAEKINFRVVAVNIAGRSPPTGLSQPVTIREIVELPKIRLPRYLRQKYIRRVGDKINLTIPFQGKPRPKVQWYKDGEELDTRVASIRNSEVDSILFIRSAERSHSGKYELVLQIENMEARAILEIRIVEAPGPPEVVKVTDVWGFNAALEWKPPKDDGNCEITGYTIQKADKKTNEWFTIYEHNRRTNCTASDLIMGNEYMFRVFSENLVGKSEDFCLSKDTAIIPKIGLEYNPPPFKEKDMQSAPKFIQPLLDRSVVAGYSTTISSAVKTCPKPKIRWLRNKIPLDENPRFLMQNNQGVLTLNIRKPSQYDGGKFTCKAINSLGEDVVECTLLVRALKDKEDGDEK
modifications: myosin-binding protein C, fast-type-like
B5: Glycogen phosphorylase, muscle form-like (protein)
chain: MSKPLSDHDKRKQISVRGLAGVENVAELKVAFNRHLHFTLVKDRNVANKRDYYFALANTVRDHLVGRWIRTQQYYYEKDPKRVYYISLEFYMGRTLQNTMVNLALENACDEAIYQLGLDMEELEDMEEDAGLGNGGLGRLAACFLDSMASLGLAAYGYGIRYEFGIFNQKIVNGWQVEEADDWLRYGNPWEKARPEYMRPVKFYGRTEHTPDGVKWVDTQVVLALPYDTPIPGYRNNIVNTMRLWSAKAPCDFNLKDFNVGGYIQAVLDRNLCENISRVLYPNDNFFEGKELRLKQEYFVVAATLQDVVRRFKASKFGSREIVRTDFAELPNKVAIQLNDTHPAMAIPELMRVLVDEEKLGWDKAWDVCVRTCAYTNHTVLPEALERWPIDLFHHLLPRHLEIIYEINRRFMEYVASKFPGDNDRLRRMSLIEEGGCKKVNMAHLCIVGSHAVNGVARIHSEILIATLFKDFYELDPHKFQNKTNGITPRRWLVMCNPGLAEVIAEKIGEEFIRDLDQLKRLLKFVNDDAFIRDIAKVKQENKLKFAVHLEEHYKVKINPQSMFDFQVKRIHEYKRQLLNCLHMITYYNRIKKEPNKHWTPRTIMVGGKAAPGYHTAKMIIRLITAIGEVVNHDPVVGDRLKVIFLENYRVTLAEKAIPSADLSEQISTAGTEASGTGNMKFMLNGALTIGTMDGANVEMAEEAGEENFFIFGMRVEDVDAMDAGKGYHASEYYNRIPELKQAMDQIAGGFFSPKQPDLFKELVDLLMHHDRFKVFADYEAYIKCQDKVNQLYKNPKEWTKMVIHNIAGCGKFSSDRTIAQYAREIWGMEPSLEKIPAPDEKLK
modifications: glycogen phosphorylase, muscle form-like

System: IgE antibody in the serum of a fish-allergic patient
Assay: Immunoblotting of two-dimensional electrophoresis patterns of fish meat proteins with patient serum
Format: binding, human
Conditions: for spots detected by immunoblotting, different from spots with serum of non-fish-allergic subject: proteins contained in salmon meat; for specific binding to IgE antibodies from fish-allergic patients: spots in two-dimensional electrophoresis gel of proteins in fish, patients diagnosed with immediate-type allergy
Experimental: Proteins contained in fish were analyzed by the aforementioned technique to identify antigens of an allergy to fish. To be specific, proteins were extracted from fish meat and subjected to two-dimensional electrophoresis under the conditions described below.
The electrophoresis in the first dimension was isoelectric focusing, which was performed using isoelectric focusing gels with a gel-strip length of 5 to 10 cm and a gel pH range of 3 to 10. The pH gradient of the gels in the direction of electrophoresis was as follows: with the total gel-strip length being taken as 1, the gel-strip length up to pH 5 was “a=0.15 to 0.3”, the gel-strip length from pH 5 to 7 was “b=0.4 to 0.7”, and the gel-strip length above pH 7 was “c=0.15 to 0.3”. More specifically, the isoelectric focusing was performed using the IPG gels, Immobiline Drystrip (pH3-10NL), produced by GE Healthcare Bio-Sciences Corporation (hereinafter abbreviated as “GE”). The electrophoresis system used was IPGphor produced by GE. The maximum current of the electrophoresis system was limited to 75 μA per gel strip. The voltage program adopted to perform the first-dimensional isoelectric focusing was as follows: (1) a constant voltage step was performed at a constant voltage of 300 V until the volt-hours reached 750 Vhr (the current variation width during electrophoresis for 30 minutes before the end of this step was 5 μA); (2) the voltage was increased gradually to 1000 V for 300 Vhr; (3) the voltage was further increased gradually to 5000 V for 4500 Vhr; and then (4) the voltage was held at a constant voltage of 5000 V until the total Vhr reached 12000.
The electrophoresis in the second dimension was SDS-PAGE, which was performed using polyacrylamide gels whose gel concentration at the distal end in the direction of electrophoresis was set to 3 to 6% and whose gel concentration at the proximal end was set to a higher value than that at the distal end. More specifically, the SDS-PAGE was performed using NuPAGE 4-12% Bris-Tris Gels (IPG well, Mini, 1 mm) produced by Life Technologies. The electrophoresis system used was XCell SureLock Mini-Cell produced by Life Technologies. The electrophoresis was run at a constant voltage of 200 V for about 45 minutes using an electrophoresis buffer composed of 50 mM MOPS, 50 mM Tris base, 0.1% (w/v) SDS and 1 mM EDTA.
Identification of antigens by immunoblotting was carried out by taking all the steps up to the step of “Second-dimensional SDS-PAGE” as described above in Example 1, followed by the steps of “Transfer to membrane”, “Immunoblotting” and “Analysis” as described below.
To be specific, proteins in the second-dimensional electrophoresis gels were transferred to a membrane (PVDF membrane) according to the following procedure. • (1) The PVDF membrane was immersed in 100% methanol followed by milliQ water, and then moved into the transfer buffer to hydrophilize the PVDF membrane. • (2) After sponge, filter paper, the second-dimensional electrophoresis gels treated by second-dimensional SDS-PAGE, the hydrophilized PVDF membrane, filter paper, and sponge were put in place in this order, the transfer system was energized at a constant voltage of 30 V for one hour. Immunoblotting
Immunoblotting of the membrane was carried out using, as a primary antibody, a serum sample from patient 1 with a fish allergy or a serum sample from a non-fish-allergic subject. This fish-allergic patient 1 was a patient diagnosed with immediate-type allergy to fish. […]

[1] = serum from fish-allergic patient 3 (FIG. 1B right)
[2] = serum from fish-allergic patient 2 (FIG. 1B left)

| Molecule | spots detected by immunoblotting, different from spots with serum of non-fish-allergic subject [1] | specific binding to IgE antibodies from fish-allergic patients | spots detected by immunoblotting, different from spots with serum of non-fish-allergic subject [2] |
| --- | --- | --- | --- |
| B1 | detected | specific binding to IgE antibodies | – |
| B2 | – | specific binding to IgE antibodies | – |
| B3 | detected | specific binding to IgE antibodies | – |
| B4 | – | specific binding to IgE antibodies | newly detected |
| B5 | – | specific binding to IgE antibodies | newly detected |
